Values of other authors in PMC10213764 (Acta Pharmaceutica Sinica. B, 2023).

Details: continuous agitation, 37 °C

native insulin: Native insulin was purchased from Life Technologies
time free from aggregation, formulated with CB[7]‒PEG conjugate: > 100 days
